For orientation: IC50 means the midpoint of a concentration-inhibition curve. Higher therefore signals weaker potency in that assay.

T1: CD123 Protein, His Tag, Acro Biosciences Cat. No. ILA-H52H6 (Homo sapiens (Human), UniProt P26951 19-305)
T1 construct: Bought protein; not shown: His tag
T1 sequence: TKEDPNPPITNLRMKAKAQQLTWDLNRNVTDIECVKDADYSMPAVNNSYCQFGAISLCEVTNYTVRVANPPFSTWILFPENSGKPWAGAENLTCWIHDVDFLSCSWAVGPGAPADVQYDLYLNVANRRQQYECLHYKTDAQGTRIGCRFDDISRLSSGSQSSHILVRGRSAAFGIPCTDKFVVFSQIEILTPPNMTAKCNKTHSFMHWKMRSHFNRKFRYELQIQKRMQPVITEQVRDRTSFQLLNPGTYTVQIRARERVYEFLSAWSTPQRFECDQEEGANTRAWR

T2: CD123 protein (R&D Systems Catalog No. 301-R3-025/CF) (Homo sapiens (Human), UniProt P26951 19-305)
T2 construct: Bought protein
T2 sequence: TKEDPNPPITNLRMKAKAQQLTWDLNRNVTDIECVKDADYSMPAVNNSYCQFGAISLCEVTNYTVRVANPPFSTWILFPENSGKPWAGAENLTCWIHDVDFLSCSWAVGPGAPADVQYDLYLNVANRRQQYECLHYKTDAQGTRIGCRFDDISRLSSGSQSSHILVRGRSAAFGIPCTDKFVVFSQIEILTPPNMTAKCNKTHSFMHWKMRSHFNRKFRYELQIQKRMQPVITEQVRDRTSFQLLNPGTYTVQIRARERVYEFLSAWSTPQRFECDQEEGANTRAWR

B1: MYT1441 (antibody, V domains shown)
VH: QVQLVQSGAEVKKPGASVKMSCKASGYTFTDYYMKWVKQAPGQGLEWIGDIIPSNGATFYNQKFKGKATLTVDRSISTAYMHLNRLRSDDTAVYYCHRSHLLRASWFAYWGQGTLVTVSS
VL: DFVMTQSPDSLAVSLGERATINCKSSQSLLNSGNQKNYLTWYLQKPGQPPKLLIYWASTRESGVPDRFSGSGSGTDFTLTISSLQAEDVAVYYCQNDYSYPYTFGQGTKLEIK
notes: IgG
B2: MYT1447 (antibody, V domains shown)
VH: QVQLVQSGAEVKKPGASVKMSCKASGYTFTDYYMKWVKQAPGQGLEWIGDIIPSNGATFYNQKFKGKATLTVDRSISTAYMHLNRLRSDDTAVYYCTRSHLLHASWFAYWGQGTLVTVSS
VL: DFVMTQSPDSLAVSLGERATINCKSSQSLLNSGNQKNYLTWYLQKPGQPPKLLIYWASTRESGVPDRFSGSGSGTDFTLTISSLQAEDVAVYYCQNDYSYPYTFGQGTKLEIK
notes: IgG
B3: MYT1443 (antibody, V domains shown)
VH: QVQLVQSGAEVKKPGASVKMSCKASGYTFTDYYMKWVKQAPGQGLEWIGDIIPSNGATFYNQKFKGKATLTVDRSISTAYMHLNRLRSDDTAVYYCTRHHLLRASWFAYWGQGTLVTVSS
VL: DFVMTQSPDSLAVSLGERATINCKSSQSLLNSGNQKNYLTWYLQKPGQPPKLLIYWASTRESGVPDRFSGSGSGTDFTLTISSLQAEDVAVYYCQNDYSYPYTFGQGTKLEIK
notes: IgG
B4: MYT1450 (antibody, V domains shown)
VH: QVQLVQSGAEVKKPGASVKMSCKASGYTFTDYYMKWVKQAPGQGLEWIGDIIPSNGATFYNQKFKGKATLTVDRSISTAYMHLNRLRSDDTAVYYCTRSHLLRASHFAYWGQGTLVTVSS
VL: DFVMTQSPDSLAVSLGERATINCKSSQSLLNSGNQKNYLTWYLQKPGQPPKLLIYWASTRESGVPDRFSGSGSGTDFTLTISSLQAEDVAVYYCQNDYSYPYTFGQGTKLEIK
notes: IgG
B5: MYT1444 (antibody, V domains shown)
VH: QVQLVQSGAEVKKPGASVKMSCKASGYTFTDYYMKWVKQAPGQGLEWIGDIIPSNGATFYNQKFKGKATLTVDRSISTAYMHLNRLRSDDTAVYYCTRSALLRASWFAYWGQGTLVTVSS
VL: DFVMTQSPDSLAVSLGERATINCKSSQSLLNSGNQKNYLTWYLQKPGQPPKLLIYWASTRESGVPDRFSGSGSGTDFTLTISSLQAEDVAVYYCQNDYSYPYTFGQGTKLEIK
notes: IgG
B6: MYT5476 (antibody, V domains shown)
VH: EVQLLESGGGLVQPGGSLRLSCAVSDYSITSGYYWNWIRQAPGKKLEWMGYISYDGSNNYNPSLKNGRITISRDTSKNTFYLQMNSLRAEDTAVYYCARGEHFYFDSWGQGTLVTVSS
VL: EIVLTQSPGTLSLSPGERATLSCKSSQSLFFGSTQKNYLAWYQQKPGQAPRLLIYWASTRESGIPDRFSGSGSGTDFTLTISRLEPEDFAVYYCQQYYNYPWTFGQGTKLEIK
notes: IgG
B7: MYT5495 (antibody, V domains shown)
VH: EVQLLESGGGLVQPGGSLRLSCAVSDYSITSGYYWNWIRQAPGKKLEWMGYISYDGSNNYNPSLKNGRITISRDTSKNTFYLQMNSLRAEDTAVYYCARGEGFYFDSWGQGTLVTVSS
VL: EIVLTQSPGTLSLSPGERATLSCKSSQSLFFGSTQKNYLHWYQQKPGQAPRLLIYWASTRESGIPDRFSGSGSGTDFTLTISRLEPEDFAVYYCQQYYNYPWTFGQGTKLEIK
notes: IgG
B8: IMGN632 (antibody, V domains shown)
VH: QVQLVQSGAEVKKPGASVKVSCKASGYIFTSSIMHWVRQAPGQGLEWIGYIKPYNDGTKYNEKFKGRATLTSDRSTSTAYMELSSLRSEDTAVYYCAREGGNDYYDTMDYWGQGTLVTVSS
VL: DIQMTQSPSSLSASVGDRVTITCRASQDINSYLSWFQQKPGKAPKTLIYRVNRLVDGVPSRFSGSGSGNDYTLTISSLQPEDFATYYCLQYDAFPYTFGQGTKVEIK
notes: IgG from Expi293 supernatant; also called MYT1251; starting ABPC
B9: MYT2758 (antibody, V domains shown)
VH: QVQLVQSGAEVKKPGASVKVSCKASGYIFTSSIMAWVRQAPGQGLEWIGYIKPYNDGTKYNEKFKGRATLTSDRSTSTAYMELSSLRSEDTAVYYCAREGGNDYYDHMDYWGQGTLVTVSS
VL: DIQMTQSPSSLSASVGDRVTITCRASQDINSYLSWFQQKPGKAPKTLIYRVNRLVDGVPSRFSGSGSGNDYTLTISSLQPEDFATYYCLQYDAFPYTFGQGTKVEIK
notes: IgG

The target in one test is T1, CD123 Protein, His Tag, Acro …. As to the kind of experiment: BLI, IgG on anti-human Fc sensor, pH 7.4 and pH 5.4. On the technique in general: BLI is a label-free optical method that tracks binding on a fibre tip over time.
In the case of B1, the binding result is “no binding (tested: 50 nM)”.

With B2, the binding result is reported as “no binding (tested: 50 nM)”.

With B3, the binding result is reported as “no binding (tested: 50 nM)”.

Consider B4, for which the binding result is “no binding (tested: 50 nM)”.

For B5, the binding result is listed as “no binding (tested: 50 nM)”.

In another test the target is T2, CD123 protein (R&D Systems Catalog No. …). Described as above.
On to B6, for which the binding result was “no binding (tested: 50 nM)”.

Take B7: the binding result is “no binding (tested: 50 nM)”.

For a further test, the target named is T3, cell surface CD123 on EOL-1 cells (CD123+) (human, UniProt P26951 19-378).
T3 construct: EOL-1 cells, DSMZ ACC 386
As to the kind of experiment: flow cytometry on EOL-1 (CD123+) cells, anti-human IgG Alexa Fluor 488; Example 16 calls the fitted value KD. The protocol:
100,000 EOL-1 cells (DSMZ ACC 386) were seeded per well in a 96 well deep well plate. IMGN632 and a pH engineered antibody variant were serially diluted at a 1:3 dilution in ice cold FC buffer (phosphate buffered saline (PBS), pH 7.4+2 mM ethylenediaminetetraacetic acid (EDTA)+2% (v/v) HI FBS). The plates were spun at 2,000 RPM for 2 minuets, the supernatant was removed, and 100 μL of diluted antibody was added to each well with final concentration ranging from 60 nM to 1 pM and incubated for 2 hours at 4° C. Post incubation, the cells were spun at 2000 rpm for 2 min and supernatant was discarded. Cells were washed twice with 500 μL of ice-cold FC buffer and resuspended with […]. The cells were then transferred from the deep well plate to 96 well round bottom plate, spun at 2000 rpm for 2 min and incubated with 100 μL of 10 μg/mL Alexa Fluor 488 conjugated goat anti-human IgG secondary antibody (ThermoFisher Scientific, A11013) for 30 min. Post incubation, cells were washed with FC buffer and resuspended in 100 μL of FC buffer to read on a BD Accuri C6 flow cytometer. Binding affinity was measured as a dissociation constant KD by GraphPad Prism assuming Michaelis-Menten binding kinetics.
For orientation: Flow cytometry measures light scatter and fluorescence of single cells or particles in a stream.
Take B8: the IC50 is 0.034 nM.

For the molecule B9, the 50% inhibitory concentration (IC50) is 0.051 nM.
